Assays:
Prp43 = Prp43 (Saccharomyces cerevisiae, UniProt P53131 1-767); assay: fluorescence polarization; 5 mM Mg2+, no nucleotide listed; 50 mM HEPES pH 7.5, 50 mM KCl, 5 mM MgCl2, 0.05% Tween-20, 1 mM DTT; 5 nM Cy5-U12 RNA, protein 20 pM to 2.5 uM; temperature not stated; conditions: protein: recombinant; tags: His6 (HRV site; pET47b); single strand
Prp43;Pxr1M = Prp43;Pxr1M (Saccharomyces cerevisiae;Saccharomyces …, UniProt P53131;P53335 1-767;72-137, |); assay: fluorescence polarization; 5 mM Mg2+, no nucleotide listed; affinity unaltered vs Prp43 alone; 50 mM HEPES pH 7.5, 50 mM KCl, 5 mM MgCl2, 0.05% Tween-20, 1 mM DTT; 5 nM Cy5-U12 RNA, protein 20 pM to 2.5 uM; temperature not stated; conditions: protein: recombinant;recombinant; tags: His6 (HRV site; pET47b);GST (pGEX-6P-1; copies: 1;1; single strand
Prp43;Tma23M = Prp43;Tma23M (Saccharomyces cerevisiae;Saccharomyces …, UniProt P53131;Q03525 1-767;43-111, |); assay: as above; conditions: protein: recombinant;recombinant; tags: His6 (HRV site; pET47b);GST (pGEX-6P-1; copies: 1;1; single strand

Measured: binding result

Sequence of Prp43 (P53131 whole entry): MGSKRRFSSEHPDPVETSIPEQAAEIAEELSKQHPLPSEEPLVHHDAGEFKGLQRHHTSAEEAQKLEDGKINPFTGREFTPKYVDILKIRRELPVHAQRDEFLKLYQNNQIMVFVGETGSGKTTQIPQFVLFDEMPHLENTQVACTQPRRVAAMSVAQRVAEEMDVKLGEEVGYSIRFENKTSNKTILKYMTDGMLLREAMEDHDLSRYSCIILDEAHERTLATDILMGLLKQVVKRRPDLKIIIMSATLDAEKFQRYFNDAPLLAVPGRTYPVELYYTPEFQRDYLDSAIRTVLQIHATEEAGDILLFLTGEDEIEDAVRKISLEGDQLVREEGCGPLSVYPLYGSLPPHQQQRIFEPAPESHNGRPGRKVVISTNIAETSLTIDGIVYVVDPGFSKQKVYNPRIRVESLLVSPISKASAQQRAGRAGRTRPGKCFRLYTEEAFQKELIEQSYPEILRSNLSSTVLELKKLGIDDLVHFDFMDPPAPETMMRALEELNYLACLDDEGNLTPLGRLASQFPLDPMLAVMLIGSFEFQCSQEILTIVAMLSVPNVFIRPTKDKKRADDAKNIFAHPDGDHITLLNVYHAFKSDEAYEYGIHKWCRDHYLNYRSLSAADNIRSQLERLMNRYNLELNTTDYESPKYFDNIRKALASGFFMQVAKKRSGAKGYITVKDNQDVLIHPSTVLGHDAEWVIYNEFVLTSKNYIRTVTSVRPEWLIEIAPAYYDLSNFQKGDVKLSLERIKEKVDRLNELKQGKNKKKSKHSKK
Sequence of Prp43;Tma23M (P53131 whole entry, chain 1 of 2): as the sequence (P53131 whole entry) above
Sequence of Prp43;Tma23M (Q03525 43-111, chain 2 of 2): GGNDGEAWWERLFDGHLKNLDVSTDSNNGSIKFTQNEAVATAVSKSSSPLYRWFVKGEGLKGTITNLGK
Sequence of Prp43;Pxr1M (P53131 whole entry, chain 1 of 2): as the sequence (P53131 whole entry) above
Sequence of Prp43;Pxr1M (P53335 72-137, chain 2 of 2): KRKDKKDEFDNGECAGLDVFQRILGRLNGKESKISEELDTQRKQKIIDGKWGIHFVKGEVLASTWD

UUUUUUUUUUUU (ssRNA) [Cy5-U12 RNA]
binds: all assays above

Reference: article PMC11584650, “An inhibitory segment within G-patch activators tunes Prp43-ATPase activity during ribosome assembly”
